Source: patent WO2020148554A1 (dated 2020)

T1: Sudan Gulu glycoprotein (NC_006432.1) expressed on MDCK-SIAT1 cells (Sudan Gulu (SUDV), UniProt Q7T9D9 33-676)
T1 sequence: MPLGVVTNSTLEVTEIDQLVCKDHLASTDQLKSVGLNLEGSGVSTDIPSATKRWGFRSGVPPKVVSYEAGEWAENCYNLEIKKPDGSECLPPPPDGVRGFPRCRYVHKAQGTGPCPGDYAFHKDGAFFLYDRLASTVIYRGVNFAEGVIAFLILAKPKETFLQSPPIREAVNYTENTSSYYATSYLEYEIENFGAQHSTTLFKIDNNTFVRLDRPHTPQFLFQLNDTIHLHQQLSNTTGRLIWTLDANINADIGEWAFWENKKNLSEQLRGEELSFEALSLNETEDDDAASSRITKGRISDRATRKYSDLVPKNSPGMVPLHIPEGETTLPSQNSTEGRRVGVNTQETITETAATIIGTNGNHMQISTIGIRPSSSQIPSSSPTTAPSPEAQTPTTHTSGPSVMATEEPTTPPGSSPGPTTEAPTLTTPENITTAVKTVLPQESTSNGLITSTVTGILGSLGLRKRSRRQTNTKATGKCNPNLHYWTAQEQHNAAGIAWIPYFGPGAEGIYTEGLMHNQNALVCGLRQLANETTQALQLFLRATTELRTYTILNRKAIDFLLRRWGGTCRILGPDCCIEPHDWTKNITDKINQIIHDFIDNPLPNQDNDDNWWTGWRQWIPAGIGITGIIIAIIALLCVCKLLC


Molecular target: T1, Sudan Gulu glycoprotein (NC_006432.1) …
Assay: indirect immunofluorescence by FACS on MDCK-SIAT1 cells expressing GP

| Binder | binding result |
| --- | --- |
| 66-3-9C (antibody, V domains shown) VH: EVQLVESGGGLVKPGGSLRLSCAASGFTFSSYNMNWVRQAPGKGLEWVSSITTSSSYIYYAYSVKGRFTISRDNAKNSLYLQMNSLRAEDTAVYYCARFLGYSYGTNYYYYGMDVWGQGTTVTVSS VL: not shown | binds |
| 6541 (antibody, V domains shown) VH: EVQLVQWGAGLLKPSETLSLTCAVYGGSFSGNYWTWIRQPPGKGLEWIGEINHSGSTNYNPSLKSRVTISVDTSKNQFSLKLSSVTAADTAVYYCATKMGGYGDYWHWYFDLWGRGTMVTVSS VL: EVVMTQSPATLSVSPGERATLSCRASQSLFTNLAWYQQKPGQAPRLLIYGASTRATGIPARFSGSGSGTDFSLTISRLQSEDFAFYYCQQYNDWPLTFGGGTKVDIKR | binds |
| 040 (antibody, V domains shown) VH: QVQLVESGGGFVQPGGSLRLSCAASGFTFSSYAMSWVRQAPGKGLEWVSTISGSGGTTYYADSVKGRFTISRDNSKNTLYLEMITLRAEDTATYFCANSYYYHSSGLLIRWDDMDVWGQGTTVTVSS VL: DIQMTQSPSSLSASVGDRVTITCRASQGIRNDLGWYQQKPGKAPKRLIYAASSLQSGVPSRFSGSGSGTEFTLTISSLQPEDFATYYCLQHSSYPWTFGQGTKVEIKR | binds |
| 6662 (antibody, V domains shown) VH: EVQLVESGGGLVKPGGSLRLSCAASGFGFSSAWMNWVRQAPGKGLEWVGRIKSKTDGGKTDYAAPVKGRFIMSRDDSKNTLYLQMNSLKTEDAGVYYCTTRIVLNGMDVWGQGTLVTVSS VL: QSVLTQPPSVSGAPGQRVTISCTGSSSNIGAGYDVHWYQQLPGTAPKLLIYANNNRPSGVPDRFSGSKSGTSASLAITGLQAEDEADYYCQSYDSRLSDGVVFGGGTKLTVLG | binds |
